According to publication doi:10.1101/2022.01.11.475808, “Hypoxia Dynamically Regulates DBC1 Ubiquitination and Stability by SIAH2 and OTUD5 in Breast Cancer Progression” (bioRxiv, 2022):

Tests used:
His-DBC1 = biological target: T1, His-DBC1 (human, UniProt Q8N163 1-923); assay: pull-down; GST-SIAH2 and His-DBC1 proteins generated in E. coli, incubated in vitro overnight, then GST beads for 2 h at 4 °C; conditions: both partners purified
T1 construct: Deleted in Breast Cancer 1 (DBC1, CCAR2), human, bacterially expressed as His-DBC1; also called His-tagged DBC1; source: E. coli BL21, purified

[1] = biological target: T2, N-terminal half of His-DBC1 (1-461) (human, UniProt Q8N163 1-461); assay: as above; conditions: both partners purified
T2 construct: source: E. coli, bacterially expressed
T2 sequence (Q8N163 1-461): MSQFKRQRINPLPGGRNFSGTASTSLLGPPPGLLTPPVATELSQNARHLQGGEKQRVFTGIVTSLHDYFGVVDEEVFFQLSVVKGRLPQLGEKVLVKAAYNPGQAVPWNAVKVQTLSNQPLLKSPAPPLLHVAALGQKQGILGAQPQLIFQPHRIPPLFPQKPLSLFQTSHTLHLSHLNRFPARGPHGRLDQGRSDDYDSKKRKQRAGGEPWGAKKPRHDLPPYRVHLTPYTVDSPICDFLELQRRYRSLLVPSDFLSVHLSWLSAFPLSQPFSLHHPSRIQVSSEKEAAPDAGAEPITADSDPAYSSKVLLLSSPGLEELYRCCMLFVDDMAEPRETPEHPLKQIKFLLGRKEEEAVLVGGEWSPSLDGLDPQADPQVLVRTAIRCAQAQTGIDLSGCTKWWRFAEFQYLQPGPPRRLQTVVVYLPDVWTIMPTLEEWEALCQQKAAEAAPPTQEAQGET

T1 sequence (Q8N163 whole entry): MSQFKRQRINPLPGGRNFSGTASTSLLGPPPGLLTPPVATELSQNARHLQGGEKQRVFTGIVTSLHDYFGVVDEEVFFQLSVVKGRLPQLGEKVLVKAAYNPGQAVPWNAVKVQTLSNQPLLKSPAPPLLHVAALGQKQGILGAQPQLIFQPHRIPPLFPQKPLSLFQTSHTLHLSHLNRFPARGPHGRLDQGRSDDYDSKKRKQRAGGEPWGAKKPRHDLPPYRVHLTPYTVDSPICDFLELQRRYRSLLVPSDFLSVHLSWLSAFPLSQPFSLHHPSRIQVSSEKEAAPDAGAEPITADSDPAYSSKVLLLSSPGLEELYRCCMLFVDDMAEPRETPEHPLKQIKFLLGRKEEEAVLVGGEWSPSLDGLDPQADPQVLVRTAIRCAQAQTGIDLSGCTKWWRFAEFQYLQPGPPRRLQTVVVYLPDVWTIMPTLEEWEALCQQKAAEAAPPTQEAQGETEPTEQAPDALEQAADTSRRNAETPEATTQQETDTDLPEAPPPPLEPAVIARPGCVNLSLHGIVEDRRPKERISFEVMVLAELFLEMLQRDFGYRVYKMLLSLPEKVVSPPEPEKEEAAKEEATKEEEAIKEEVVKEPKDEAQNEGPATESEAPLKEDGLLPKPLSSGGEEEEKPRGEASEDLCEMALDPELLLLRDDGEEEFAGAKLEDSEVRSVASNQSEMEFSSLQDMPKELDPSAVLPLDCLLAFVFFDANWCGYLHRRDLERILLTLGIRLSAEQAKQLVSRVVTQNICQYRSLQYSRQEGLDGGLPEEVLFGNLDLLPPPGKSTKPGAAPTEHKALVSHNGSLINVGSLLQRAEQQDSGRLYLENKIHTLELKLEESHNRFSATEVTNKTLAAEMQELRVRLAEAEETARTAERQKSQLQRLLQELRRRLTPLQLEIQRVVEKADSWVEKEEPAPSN

B1: GST-SIAH2 (enzyme, human, UniProt O43255 1-324, looked up)
chain: MSRPSSTGPSANKPCSKQPPPQPQHTPSPAAPPAAATISAAGPGSSAVPAAAAVISGPGGGGGAGPVSPQHHELTSLFECPVCFDYVLPPILQCQAGHLVCNQCRQKLSCCPTCRGALTPSIRNLAMEKVASAVLFPCKYATTGCSLTLHHTEKPEHEDICEYRPYSCPCPGASCKWQGSLEAVMSHLMHAHKSITTLQGEDIVFLATDINLPGAVDWVMMQSCFGHHFMLVLEKQEKYEGHQQFFAIVLLIGTRKQAENFAYRLELNGNRRRLTWEATPRSIHDGVAAAIMNSDCLVFDTAIAHLFADNGNLGINVTISTCCP
notes: E3 ubiquitin ligase SIAH2, human, bacterially expressed as GST-SIAH2; also called purified glutathione S-transferase (GST) SIAH2; source: E. coli BL21, purified
binding result (His-DBC1): binds | binding result [1]: binds
